Test results: paper PMC3975500 (Cell Research, 2014)

T1: Lsm1-7 heptamer (Saccharomyces cerevisiae, UniProt P47017;P38203;P57743;P40070;P40089;Q06406;P53905 …)
T1 sequence 1: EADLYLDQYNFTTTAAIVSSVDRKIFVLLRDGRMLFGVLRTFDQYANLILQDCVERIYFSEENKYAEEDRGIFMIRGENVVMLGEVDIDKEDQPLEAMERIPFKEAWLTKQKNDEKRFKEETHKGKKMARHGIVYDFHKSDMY
T1 sequence 2: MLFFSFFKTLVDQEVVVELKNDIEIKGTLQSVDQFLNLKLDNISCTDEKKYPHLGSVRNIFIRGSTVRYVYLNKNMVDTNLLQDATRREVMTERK
T1 sequence 3: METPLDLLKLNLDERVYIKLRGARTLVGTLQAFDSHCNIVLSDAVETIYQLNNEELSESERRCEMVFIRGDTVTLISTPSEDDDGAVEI
T1 sequence 4: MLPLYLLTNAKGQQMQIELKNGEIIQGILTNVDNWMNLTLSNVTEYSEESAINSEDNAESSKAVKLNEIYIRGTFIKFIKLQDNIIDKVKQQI
T1 sequence 5: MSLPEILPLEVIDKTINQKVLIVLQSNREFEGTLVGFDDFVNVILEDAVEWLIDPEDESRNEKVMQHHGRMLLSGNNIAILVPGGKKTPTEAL
T1 sequence 6: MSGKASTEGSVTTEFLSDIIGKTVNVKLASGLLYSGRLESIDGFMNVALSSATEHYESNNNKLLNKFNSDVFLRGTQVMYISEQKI
T1 sequence 7: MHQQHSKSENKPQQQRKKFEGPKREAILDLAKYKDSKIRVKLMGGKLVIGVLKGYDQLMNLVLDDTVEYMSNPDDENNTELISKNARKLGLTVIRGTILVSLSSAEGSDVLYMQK

T2: Lsm7 (full length), subunit of the crystallized Lsm1-7 complex (S. cerevisiae, UniProt P53905 1-115)
T2 sequence: T1 sequence 7

B1: oligo-U (U8) (ssRNA)
RNA: UUUUUUUU
B2: Lsm6 (full length), subunit of the crystallized Lsm1-7 complex (natural protein)
chain: T1 sequence 6
B3: Lsm4 (residues 1-93), subunit of the crystallized Lsm1-7 complex (domain or fragment)
chain: T1 sequence 4
B4: Lsm5 (full length), subunit of the crystallized Lsm1-7 complex (natural protein)
chain: T1 sequence 5

Tests used:
Lsm1-7 heptamer = target: T1, Lsm1-7 heptamer; test: BLI
[1] = target: B4; test: crystal structure
[2] = target: T2, Lsm7 (full length), subunit of the …; test: crystal structure

| binding result [2] | Binder | other results |
| --- | --- | --- |
|  | B1 | Kd (Lsm1-7 heptamer): ~2000 nM |
|  | B2 | binding result [1]: binds |
| binds | B3 |  |
| binds | B4 |  |
